Experimental data reported in patent publication US20230405146A1 (HARBOUR ANTIBODIES, published 2023).
Numbering of substitutions follows the chain as printed. Ends that are not written are not given here.

T1: CD34 peptide (region 191 aa-207aa of the extracellular domain of CD34) coupled to BSA (human, also: coupled to BSA, site not given here)
T1 construct: also called CD34 specific peptide
T1 peptide: LEQNKTSSCAEFKKDRG

B1: 3.2E3 (antibody, V domains shown)
VH: QVQLVESGGGVVQPGRSLRLSCVASGFTLSLNGMHWVRQAPGKGLEWVAVIWYDGSNRYYVDSVKGRFTISRDNSKNTLYLQMNSLRAEDTAVYYCARESFLGTFDYWGQGTLVTVSS
VL: DIQLTQSPSFLSASVGDRVTITCRASQGISSYLAWYQQKPGKAPKLLIYAASTLQSGVPSRFSGSGSGTEFTLTISSLQPEDFATYYCQQLNSYPYTFGQGTKLEIK
B2: 2.4c10 (antibody, V domains shown)
VH: QVQLVESGGGVVQPGRSLRLSCAASGFTFSNYGMHWVRQAPDKGLEWVAVIWYDGSKKYYADSVKGRFTISRDDSKNTLYLQMNSLRAEDTAVYYCARWGELRYDAFDIWGQGTMVTVSS
VL: not shown
notes: Anti-CD34 hybridoma clone from H2L2 mice
B3: 2.6f11 (antibody, V domains shown)
VH: B2 VH with N31S, D42G, A61T, D74N, Y94F, E101S, L102G, R103N, Y104F, A106S
VL: DIQMTQSPSTLSASVGDRVTITCRASQSISSWLAWYQQKPGKAPKLLISKASSLESGVPSRFSGSGSGTEFTLTISSLQPDDFATYYCQQYKNYWTFGQGTKVEIK
notes: as for B2
B4: 4.5c5 (antibody, V domains shown)
VH: EMQLLESGGGLVQPGGSLRLSCAASGFTFGHYAMTWVRQVPGKGLDWVSAISGGGTFTHYADSVKGRFTTSRDNSKNTLYLQMSSLRAEDTALYYCAKDQGYDYSWYYFDYWGQGTLVTVSS
VL: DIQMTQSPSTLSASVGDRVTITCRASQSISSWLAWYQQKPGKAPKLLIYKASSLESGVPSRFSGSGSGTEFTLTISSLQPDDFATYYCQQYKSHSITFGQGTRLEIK
notes: as for B2
B5: 4.5 e5 (antibody, V domains shown)
VH: B4 VH
VL: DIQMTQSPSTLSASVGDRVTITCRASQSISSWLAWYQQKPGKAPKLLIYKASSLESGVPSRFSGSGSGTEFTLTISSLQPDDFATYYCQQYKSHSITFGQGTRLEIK
notes: as for B2
B6: L.1c7 (antibody, V domains shown)
VH: B4 VH with Y32F, T35S, T56S, H59Y, Y60S, Y111F
VL: DIQMTQSPSTLSASVGDRVTITCRASQSISSWLAWYQQRPGKAPKLLIYKASSLESGVPSRFSGRGSGTEFTLTISSLQPDDFATYYCQQYKSHSITFGQGTRLEIK
notes: as for B2

Each binder was assayed against T2, human Gpr56 on cells (primary blood cells; 32D-Gpr56 cell line) (human, UniProt Q9Y653 26-693) (assay: flow cytometry, 32D-Gpr56 cells, α-rat AF647 secondary; the dashed histogram is taken as the control).
T2 construct: whole, on cells; In the nanoparticle assays the cells were gated or isolated by CD34, not by Gpr56
T2 sequence (Q9Y653 26-693): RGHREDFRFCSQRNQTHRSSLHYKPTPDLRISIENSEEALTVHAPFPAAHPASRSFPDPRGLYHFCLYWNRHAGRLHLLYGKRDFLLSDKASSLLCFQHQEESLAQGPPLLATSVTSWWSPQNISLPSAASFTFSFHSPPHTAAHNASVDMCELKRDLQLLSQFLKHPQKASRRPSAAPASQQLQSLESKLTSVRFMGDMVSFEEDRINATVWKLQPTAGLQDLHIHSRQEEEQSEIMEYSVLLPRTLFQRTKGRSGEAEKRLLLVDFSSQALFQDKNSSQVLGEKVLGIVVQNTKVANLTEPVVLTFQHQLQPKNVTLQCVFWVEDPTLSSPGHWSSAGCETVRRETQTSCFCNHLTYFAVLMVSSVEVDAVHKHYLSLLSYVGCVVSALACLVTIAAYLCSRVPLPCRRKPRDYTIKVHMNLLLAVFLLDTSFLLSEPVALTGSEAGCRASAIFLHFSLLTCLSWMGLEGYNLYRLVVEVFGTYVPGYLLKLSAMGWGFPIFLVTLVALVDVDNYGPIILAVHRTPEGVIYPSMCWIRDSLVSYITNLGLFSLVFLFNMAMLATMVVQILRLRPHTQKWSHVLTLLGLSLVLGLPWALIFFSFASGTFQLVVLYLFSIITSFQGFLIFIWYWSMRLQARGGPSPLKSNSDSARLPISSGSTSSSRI

| binding result | Binder |
| --- | --- |
| no binding (tested: 10 µg/ml) | B1 |

Target: T1, CD34 peptide (region 191 aa-207aa of …)
Assay: not stated: column headed Affinity, with no unit, method or antigen form printed; table of the CD34-peptide-positive monoclonals

| Affinity | Binder |
| --- | --- |
| 3e-08 | B2 |
| 2.1e-09 | B3 |
| 1.3e-09 | B4 |
| 8.2e-10 | B5 |
| 3.9e-09 | B6 |
